Results on two molecules are retold here after patent US20240034776A1 (FUDAN UNIVERSITY, published 2024).

As usually defined, the EC50 is the concentration at which the effect is half-maximal. A low value points to higher potency in that assay. As a reminder, the Kd is the concentration at which binding is half-saturated. Low readings indicate a tighter complex, high ones a looser complex.

Assay [1] deals with T1, ITPRIPL1 P8 polypeptide (human).
T1 construct: also called human ITPRIPL1 P8 polypeptide; polypeptide segment P8
T1 peptide: RLLEMEFEERKRAAE
In words: ELISA, peptides coated at 1 µg/ml, antibody at 1 µg/ml. (In an ELISA, binding on a coated surface is turned into a signal by an enzyme label.)

In assay [2] the target is T2, P8 polypeptide with site 3 (L) mutated to alanine (human).
T2 construct: also called P8 L3A
T2 peptide: RLAEMEFEERKRAAE
Briefly: ELISA, peptide coated at 1 µg/ml.

Assay [3] has as its target T3, P8 polypeptide with site 10 (R) mutated to alanine (human).
T3 construct: also called P8 R10A
T3 peptide: RLLEMEFEEAKRAAE
Briefly: ELISA, peptide coated at 1 µg/ml.

In assay [4] the target is T4, P8 polypeptide with site 7 (F) mutated to alanine (human).
T4 construct: also called P8 F7A
T4 peptide: RLLEMEAEERKRAAE
Briefly: ELISA, peptide coated at 1 µg/ml.

For assay [5], the target named is T5, P8 polypeptide with site 2 (L) mutated to alanine (human).
T5 construct: also called P8 L2A
T5 peptide: RALEMEFEERKRAAE
Briefly: ELISA, peptide coated at 1 µg/ml, antibody at 1 µg/ml.

The target of assay [6] is T6, P8 polypeptide with site 6 (E) mutated to alanine (human).
T6 construct: also called P8 E6A
T6 peptide: RLLEMAFEERKRAAE
The assay is described as above.

Assay [7] has as its target T7, P8 polypeptide with site 11 (K) mutated to alanine (human).
T7 construct: also called P8 K11A
T7 peptide: RLLEMEFEERARAAE
The assay is described as above.

The target of assay [8] is T8, P8 polypeptide with site 8 (E) mutated to alanine (human).
T8 construct: also called P8 E8A
T8 peptide: RLLEMEFAERKRAAE
The description is as above.

Assay [9] deals with T9, P8 polypeptide with site 4 (E) mutated to alanine (human).
T9 construct: also called P8 E4A
T9 peptide: RLLAMEFEERKRAAE
The assay is described as above.

The target in assay [10] is T10, P8 polypeptide with site 15 (E) mutated to alanine (human).
T10 construct: also called P8 E15A
T10 peptide: RLLEMEFEERKRAAA
Described as above.

In assay [11] the target is T11, P8 polypeptide with site 5 (M) mutated to alanine (human).
T11 construct: also called P8 M5A
T11 peptide: RLLEAEFEERKRAAE
The assay is described as above.

Assay [12] deals with T12, P8 polypeptide with site 12 (R) mutated to alanine (human).
T12 construct: also called P8 R12A
T12 peptide: RLLEMEFEERKAAAE
The assay is described as above.

Assay [13] concerns the target T13, P8 polypeptide with site 1 (R) mutated to alanine (human).
T13 construct: also called P8 R1A
T13 peptide: ALLEMEFEERKRAAE
The assay is described as above.

The target in assay [14] is T14, P8 polypeptide with site 9 (E) mutated to alanine (human).
T14 construct: also called P8 E9A
T14 peptide: RLLEMEFEARKRAAE
The description is as above.

Assay [15] has as its target T15, CD3ε (Met1-Asp126) protein with hFc tag (Sino Biological) (UniProt P07766 22-126).
T15 chain: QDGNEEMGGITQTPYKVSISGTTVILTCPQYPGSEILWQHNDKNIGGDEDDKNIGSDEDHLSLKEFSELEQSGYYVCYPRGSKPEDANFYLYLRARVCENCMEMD
Briefly: ELISA.

The target of assay [16] is T16, NRP2 extracellular domain protein with hFc (Sino Biological) (UniProt O60462 21-864).
T16 chain: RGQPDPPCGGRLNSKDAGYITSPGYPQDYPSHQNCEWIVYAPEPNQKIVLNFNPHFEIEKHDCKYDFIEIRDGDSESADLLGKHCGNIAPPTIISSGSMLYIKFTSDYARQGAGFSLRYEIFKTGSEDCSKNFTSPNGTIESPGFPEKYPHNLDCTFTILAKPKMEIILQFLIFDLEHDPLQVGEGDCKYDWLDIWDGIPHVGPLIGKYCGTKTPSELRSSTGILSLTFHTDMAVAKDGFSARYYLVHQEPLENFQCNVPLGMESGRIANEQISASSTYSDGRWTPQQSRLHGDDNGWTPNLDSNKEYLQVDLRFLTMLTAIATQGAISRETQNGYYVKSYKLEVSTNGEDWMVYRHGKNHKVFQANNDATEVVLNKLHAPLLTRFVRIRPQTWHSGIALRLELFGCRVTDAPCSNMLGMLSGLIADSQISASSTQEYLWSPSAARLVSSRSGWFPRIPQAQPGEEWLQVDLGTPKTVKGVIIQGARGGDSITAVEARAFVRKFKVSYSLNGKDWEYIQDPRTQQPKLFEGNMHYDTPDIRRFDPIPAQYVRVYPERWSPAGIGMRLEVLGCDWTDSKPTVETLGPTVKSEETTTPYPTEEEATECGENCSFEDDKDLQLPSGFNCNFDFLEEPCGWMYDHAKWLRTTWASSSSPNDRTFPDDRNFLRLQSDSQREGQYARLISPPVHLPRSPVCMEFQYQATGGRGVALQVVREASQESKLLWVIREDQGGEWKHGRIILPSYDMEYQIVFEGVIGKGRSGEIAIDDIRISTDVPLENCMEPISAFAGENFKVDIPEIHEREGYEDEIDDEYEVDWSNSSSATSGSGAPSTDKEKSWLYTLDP
In words: ELISA.

Assay [17] concerns the target T17, CD3E-human Fc protein (Sino Biological) (UniProt P07766 23-126).
T17 chain: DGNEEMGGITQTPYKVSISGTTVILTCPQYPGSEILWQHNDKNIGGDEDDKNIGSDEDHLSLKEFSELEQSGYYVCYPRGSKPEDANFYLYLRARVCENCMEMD
Briefly: BLI (Octet). A general note: BLI is a label-free optical method that tracks binding on a fibre tip over time.

The target of assay [18] is T18, HA-tagged CD3ε (expressed from pcDNA3.1 in transfected HCT116 cells) (human, UniProt P07766 23-207).
T18 construct: whole, on cells; also called CD3ε-HA; CD3E-HA; not shown: HA tag
Briefly: flow cytometry on HCT116-CD3ε cells, 1-4 µg/ml protein, anti-6x-His-FITC.

B1: monoclonal antibody 13B7A6H3 (antibody, mouse IgG1, kappa, V domains shown)
VH: QVQLQQSGPELVKPGASVRMSCKTSGYTFTDYVISWVKQRPGQGLEWIGEIFPRTGSTYYNENFKATATLTADKSSNTAYMQLSSLTSEDSAAYFCAFITSVDWAMEYWGQGTSVTVSS
VL: DVVMTQTPLSLPVSLGDQASISCRSSESLVNSKGNTHLHWYLQKPGQSPKLLIYKVSNRFSGVPDRFSGSGSGTDFTLKISRVEAEDLGVYFCSQSTHAPYTFGGGTKLEIKR
notes: Mouse hybridoma monoclonal; also called 13B7A6H3 monoclonal antibody
With B1, the binding result in assay [1] is reported as “binds”; in assay [2] it was “no binding (tested: 1 µg/ml)”; in assay [3] it was “no binding (tested: 1 µg/ml)”; in [4], “no binding (tested: 1 µg/ml)”; in assay [5], “binds”; in assay [6] it was “binds”. For the same molecule, the binding result in assay [7], in [8], in assay [9], in assay [10], in assay [11] and in assay [12] was “binds” each time. The binding result in [13] and in assay [14] was “binds” throughout.

B2: ITPRIPL1-RBD recombinant protein (human ITPRIPL1 extracellular domain, 25-103 amino acids, C-terminal 6x-His and Myc tags, Cusabio, from yeast) (ligand)
chain: HPLMVSDRMDLDTLARSRQLEKRMSEEMRLLEMEFEERKRAAEQRQKAENFWTGDTSSDQLVLGKKDMGWPFQADGQEG
notes: also called IT1-RBD protein; ITPRIPL1-RBD-6x-His recombinant protein; not shown: 6x-His and Myc tags at the C terminus
With B2, the EC50 was found to be 0.255 µg/mL in [15] and 0.418 µg/mL in assay [16]. This molecule also registered a Kd in assay [17] of 318 nM. The binding result in [18] is reported as “binds”.
